Assay results: publication PMC4794571

What was measured:
[1] = target: Cy3-IgE (direct labeling) (UniProt P01854); assay: microarray fluorescence; conditions: direct label, PBSMTB for IgE microarrays (full recipe not in material; PBS-based wash: 8.1 mM Na2HPO4, 137 mM NaCl, 1 mM MgCl2, pH 7.4), temperature not stated, thrombin …
[2] = target: biotin-IgE (indirect labeling) (UniProt P01854); assay: microarray fluorescence; conditions: indirect label, PBSMTB for IgE microarrays (full recipe not in material; PBS-based wash: 8.1 mM Na2HPO4, 137 mM NaCl, 1 mM MgCl2, pH 7.4), temperature not stated, thrombin …
[3] = target: IgE (cited assays) (human) (UniProt P01854); assay: filter binding; conditions: PBSMTB for IgE microarrays (full recipe not in material; PBS-based wash: 8.1 mM Na2HPO4, 137 mM NaCl, 1 mM MgCl2, pH 7.4), temperature not stated, thrombin …, cited from earlier work
[4] = target: IgE (cited assays) (human) (UniProt P01854); assay: SPR; conditions: PBSMTB for IgE microarrays (full recipe not in material; PBS-based wash: 8.1 mM Na2HPO4, 137 mM NaCl, 1 mM MgCl2, pH 7.4), temperature not stated, thrombin …, cited from earlier work
[5] = target: IgE (cited assays) (human) (UniProt P01854); assay: fluorescence anisotropy; conditions: not immobilized; PBSMTB for IgE microarrays (full recipe not in material; PBS-based wash: 8.1 mM Na2HPO4, 137 mM NaCl, 1 mM MgCl2, pH 7.4); temperature not stated; thrombin …; cited from earlier work
[6] = T linker, T linker to array surface
[7] = A linker, A linker to array surface
[8] = C linker, C linker to array surface
[9] = G linker, G linker to array surface

AGGGCACGTTTATCCGTCCCTCCTAGTGGCGTGCCCT [IgE_D17-4_DM1_37]
Kd [1, 6]: 82.3 nM | Kd [2, 6]: 29.9 nM

CACGTTTATCCGTCCCTCCTAGTGGCGTG [IgE_17-1 (IgE_D17-1)]
Kd [2, 6]: 73.4 nM

CACGTTTATCCGTCCCTCCTAGTGGCGTG [IgE_17-1, cited assay]
Kd ([3]; solution): 82 nM

GGGGCACGTTTATCCGTCCCTCCTAGTGGCGTGCCCC [IgE_17-4 (IgE_D17-4), T linker]
Kd ([1]; D/P 2.4, T linker 10-15, T linker to array surface): 66.3 nM | Kd [2, 6]: 29.5 nM

GGGGCACGTTTATCCGTCCCTCCTAGTGGCGTGCCCC [IgE_17-4, A linker]
Kd [1, 7]: 63.7 nM | Kd [2, 7]: 30.9 nM

GGGGCACGTTTATCCGTCCCTCCTAGTGGCGTGCCCC [IgE_17-4, C linker]
Kd [1, 8]: 61.8 nM | Kd [2, 8]: 30.8 nM

GGGGCACGTTTATCCGTCCCTCCTAGTGGCGTGCCCC [IgE_17-4, G linker]
Kd [1, 9]: 86.5 nM | Kd [2, 9]: 29.5 nM

GGGGCACGTTTATCCGTCCCTCCTAGTGGCGTGCCCC [IgE_17-4, cited assays]
Kd ([4]; aptamer immobilized on surface): 74.8 nM | Kd ([4]; aptamer not immobilized): 4.7 nM | Kd ([3]; not immobilized): 9 nM | Kd [5]: 15 nM

TGGGCACGTTTATCCGTCCCTCCTAGTGGCGTGCCCC [IgE_D17-4_SM1]
Kd [1, 6]: 79.9 nM | Kd [2, 6]: 28.8 nM
